Measurements taken from patent US20150037304.

Assays:
Assay in all cases: cell_activity
[1] = test system: ZFN SBS#25191 (HLA-A3) (synthetic construct); settings: HEK293, Surveyor assay; ZFN identity (pair 25191/25190) inferred from Table 1
[2] = test system: ZFN SBS#18881 (ZFN-R, HLA-A2) (synthetic construct); settings: pair with 18889, EL/KK FokI, primary T cells, 2.5 ug each mRNA; 19% at 37C and up to 57% with 30C cold shock without EL/KK
[3] = test system: ZFN SBS#18889 (ZFN-L, HLA-A2) (synthetic construct); settings: pair with 18881, EL/KK FokI, primary T cells, 2.5 ug each mRNA; 19% at 37C and up to 57% with 30C cold shock without EL/KK; Table 2 prints AGG where listing …
[4] = test system: ZFN SBS#25190 (HLA-A3) (synthetic construct); settings: HEK293, Surveyor assay; ZFN identity (pair 25191/25190) inferred from Table 1

Work on “ATGGAGCCGCGGGCGCCGTGGATAGAGC (double strand) [HLA-A3 target site of 25191]” yielded an activity (% modified HLA-A3 alleles) [1] of 10.
For “TTATCTGGATGGTGTGAGAACCTGGCCC (double strand) [HLA-A2 target site of 18881]”, the activity (% HLA-A2 negative cells) [2] was 52.
“GTATGGCTGCGACGTGGGGTCGGACGGG (double strand) [HLA-A2 target site of 18889]” was tested, and the activity (% HLA-A2 negative cells) [3] was 52.
Work on “CTGGCTCGCGGCGTCGCTGTCGAACCGC (double strand) [HLA-A3 target site of 25190]” yielded an activity (% modified HLA-A3 alleles) [4] of 10.
